Paper PMC3265570 (Nature structural & molecular biology, 2011)
No end group written: not given here.

Molecular target: full-length Crk-II (SH2-nSH3-cSH3) (UniProt Q64010-1 1-304)
Assay: other fluorescence titration

Sequence of full-length Crk-II (SH2-nSH3-cSH3) (Q64010 whole entry): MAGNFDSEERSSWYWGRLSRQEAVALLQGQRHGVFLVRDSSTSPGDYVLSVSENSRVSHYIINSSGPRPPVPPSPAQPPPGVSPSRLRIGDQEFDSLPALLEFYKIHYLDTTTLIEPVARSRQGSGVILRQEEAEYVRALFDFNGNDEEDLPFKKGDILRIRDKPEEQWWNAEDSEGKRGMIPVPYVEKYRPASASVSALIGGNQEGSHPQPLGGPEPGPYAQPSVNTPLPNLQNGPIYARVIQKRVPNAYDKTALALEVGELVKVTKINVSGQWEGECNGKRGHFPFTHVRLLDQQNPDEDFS

Q: With HPPPPLPPKRRK(fluorescein)G-NH2 [fluorescein-labeled C3G-derived ligand] as the binder, how does the Kd read?
A: 286 ± 19 nM
